Results published in article PMC4786117, “Human PIEZO1 Ion Channel Functions as a Split Protein” (PLoS ONE, 2016).

Target: T1, hPIEZO1 C-terminal segment (residues 1592-2521) with N-terminal GFP (human, UniProt Q92508 1592-2521)
T1 construct: PIEZO1, human, residues 1592-2521, second cistron (after the IRES element) of the bicistronic vector hPIEZO1 NtCt; the methods say amplified from amino acid 1591 to the end, the results print 1592 to 2251 and 1591-2251; C-terminus amplified from HekP1; inserted at a SpeI site after the GFP of pIRES2-EGFP, so GFP precedes the segment; also called Ct-EGFP; C-terminal fragment; source: HEK293, …
T1 sequence (looked up): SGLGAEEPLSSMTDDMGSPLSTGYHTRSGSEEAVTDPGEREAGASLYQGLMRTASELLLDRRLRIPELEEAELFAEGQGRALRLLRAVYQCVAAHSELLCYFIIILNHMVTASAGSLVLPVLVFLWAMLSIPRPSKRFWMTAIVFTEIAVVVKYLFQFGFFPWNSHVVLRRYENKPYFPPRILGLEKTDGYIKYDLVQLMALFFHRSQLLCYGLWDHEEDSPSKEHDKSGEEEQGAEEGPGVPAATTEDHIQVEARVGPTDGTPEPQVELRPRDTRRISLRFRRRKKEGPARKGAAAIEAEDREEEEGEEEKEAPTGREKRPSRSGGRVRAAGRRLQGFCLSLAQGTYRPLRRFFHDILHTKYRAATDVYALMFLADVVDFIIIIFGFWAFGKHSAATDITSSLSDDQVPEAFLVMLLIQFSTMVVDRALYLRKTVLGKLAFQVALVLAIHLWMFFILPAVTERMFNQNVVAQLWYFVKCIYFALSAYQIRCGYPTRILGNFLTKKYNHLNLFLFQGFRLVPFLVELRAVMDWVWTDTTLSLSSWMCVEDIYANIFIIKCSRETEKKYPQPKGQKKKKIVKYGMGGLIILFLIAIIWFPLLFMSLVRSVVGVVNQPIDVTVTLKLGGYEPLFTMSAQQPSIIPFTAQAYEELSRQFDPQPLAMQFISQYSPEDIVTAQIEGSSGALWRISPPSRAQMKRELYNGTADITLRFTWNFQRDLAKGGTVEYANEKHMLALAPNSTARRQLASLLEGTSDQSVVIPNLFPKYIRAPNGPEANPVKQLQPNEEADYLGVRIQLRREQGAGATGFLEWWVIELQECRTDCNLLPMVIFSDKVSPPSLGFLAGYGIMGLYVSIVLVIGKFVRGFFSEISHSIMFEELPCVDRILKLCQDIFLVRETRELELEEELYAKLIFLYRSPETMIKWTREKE
Assay: FRET or BRET; living HEK293 cells transfected with bicistronic vectors; EGFP and mCherry fusions; FRET ratio = 680 nm emission excited at 480 nm over 680 nm emission excited at 560 nm
Conditions: partners not purified

FRET ratio: 3.4
B1: hPIEZO1 N-terminal segment (residues 1-1591) with mCherry linked at its end (domain or fragment, human, UniProt Q92508 1-1591, looked up)
chain: MEPHVLGAVLYWLLLPCALLAACLLRFSGLSLVYLLFLLLLPWFPGPTRCGLQGHTGRLLRALLGLSLLFLVAHLALQICLHIVPRLDQLLGPSCSRWETLSRHIGVTRLDLKDIPNAIRLVAPDLGILVVSSVCLGICGRLARNTRQSPHPRELDDDERDVDASPTAGLQEAATLAPTRRSRLAARFRVTAHWLLVAAGRVLAVTLLALAGIAHPSALSSVYLLLFLALCTWWACHFPISTRGFSRLCVAVGCFGAGHLICLYCYQMPLAQALLPPAGIWARVLGLKDFVGPTNCSSPHALVLNTGLDWPVYASPGVLLLLCYATASLRKLRAYRPSGQRKEAAKGYEARELELAELDQWPQERESDQHVVPTAPDTEADNCIVHELTGQSSVLRRPVRPKRAEPREASPLHSLGHLIMDQSYVCALIAMMVWSITYHSWLTFVLLLWACLIWTVRSRHQLAMLCSPCILLYGMTLCCLRYVWAMDLRPELPTTLGPVSLRQLGLEHTRYPCLDLGAMLLYTLTFWLLLRQFVKEKLLKWAESPAALTEVTVADTEPTRTQTLLQSLGELVKGVYAKYWIYVCAGMFIVVSFAGRLVVYKIVYMFLFLLCLTLFQVYYSLWRKLLKAFWWLVVAYTMLVLIAVYTFQFQDFPAYWRNLTGFTDEQLGDLGLEQFSVSELFSSILVPGFFLLACILQLHYFHRPFMQLTDMEHVSLPGTRLPRWAHRQDAVSGTPLLREEQQEHQQQQQEEEEEEEDSRDEGLGVATPHQATQVPEGAAKWGLVAERLLELAAGFSDVLSRVQVFLRRLLELHVFKLVALYTVWVALKEVSVMNLLLVVLWAFALPYPRFRPMASCLSTVWTCVIIVCKMLYQLKVVNPQEYSSNCTEPFPNSTNLLPTEISQSLLYRGPVDPANWFGVRKGFPNLGYIQNHLQVLLLLVFEAIVYRRQEHYRRQHQLAPLPAQAVFASGTRQQLDQDLLGCLKYFINFFFYKFGLEICFLMAVNVIGQRMNFLVTLHGCWLVAILTRRHRQAIARLWPNYCLFLALFLLYQYLLCLGMPPALCIDYPWRWSRAVPMNSALIKWLYLPDFFRAPNSTNLISDFLLLLCASQQWQVFSAERTEEWQRMAGVNTDRLEPLRGEPNPVPNFIHCRSYLDMLKVAVFRYLFWLVLVVVFVTGATRISIFGLGYLLACFYLLLFGTALLQRDTRARLVLWDCLILYNVTVIISKNMLSLLACVFVEQMQTGFCWVIQLFSLVCTVKGYYDPKEMMDRDQDCLLPVEEAGIIWDSVCFFFLLLQRRVFLSHYYLHVRADLQATALLASRGFALYNAANLKSIDFHRRIEEKSLAQLKRQMERIRAKQEKHRQGRVDRSRPQDTLGPKDPGLEPGPDSPGGSSPPRRQWWRPWLDHATVIHSGDYFLFESDSEEEEEAVPEDPRPSAQSAFQLAYQAWVTNAQAVLRRRQQEQEQARQEQAGQLPTGGGPSQEVEPAEGPEEAAAGRSHVVQRVLSTAQFLWMLGQALVDELTRWLQEFTRHHGTMSDVLRAERYLLTQELLQGGEVHRGVLDQLYTSQAEATLPGPTEAPNAPSTVS
notes: PIEZO1, human, residues 1-1591, first cistron of the bicistronic vector hPIEZO1 NtCt; also called Nt-mCherry; N-terminal fragment; source: HEK293, transfected with the bicistronic plasmid hPIEZO1 NtCt, in living cells; not shown: mCherry, C-terminal, kept
